Reference: patent publication US20190387724A1

Target: human/mouse chimeric PD-1 protein (humanized PD-1 of B-hPD-1 mice) (human/mouse chimeric)
Test: flow cytometry on T lymphocytes (CD3+) of F1 generation B-hPD-1 mice

Chain of human/mouse chimeric PD-1 protein (humanized PD-1 of B-hPD-1 mice) (human/mouse chimeric) (chain, as listed by the source mutant limits assumed): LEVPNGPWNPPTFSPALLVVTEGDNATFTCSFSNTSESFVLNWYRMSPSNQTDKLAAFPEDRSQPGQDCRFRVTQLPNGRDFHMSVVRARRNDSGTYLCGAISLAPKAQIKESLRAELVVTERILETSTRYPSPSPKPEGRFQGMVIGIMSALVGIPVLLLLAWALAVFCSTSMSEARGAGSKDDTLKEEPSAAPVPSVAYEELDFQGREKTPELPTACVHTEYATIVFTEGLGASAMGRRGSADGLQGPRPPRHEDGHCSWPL

percent of double-positive cells (anti-human PD-1 and anti-mouse CD3): 92%
Substance: anti-human PD-1 antibody hPD-1 FITC (Biolegend, article number 329904)
